Reference: FireProtDB (doi:10.1021/bi050342n)

Settings: Pseudomonas aeruginosa (strain ATCC 15692 / DSM 22644 / CIP 104116 / JCM 14847 / LMG 12228 / 1C / PRS 101 / PAO1); pH 7; 25 °C; GdnHCl; Fluorescence, CD; Tris-HCl 100 mM; reversible: Yes; whole UniProt chain shown

B1: Azurin wild type, P00282 (protein)
chain: MLRKLAAVSLLSLLSAPLLAAECSVDIQGNDQMQFNTNAITVDKSCKQFTVNLSHPGNLPKNVMGHNWVLSTAADMQGVVTDGMASGLDKDYLKPDDSRVIAHTKLIGSGEKDSVTFDVSKLKEGEQYMFFCTFPGHSALMKGTLTLK
B1 showed a denaturant m value of 4.06 kcal/mol/M and an unfolding free energy of 12.9 kcal/mol.
